In patent US20160185871A1 (UNIVERSITY OF TOKYO, published 2016):

T1: human TLR9 having Flag-His6 added on the C-terminal side (human, UniProt Q9NR96 26-1032)
T1 construct: whole, on cells; Expressed in Ba/F3 cells and stained after membrane permeabilisation; not shown: C-terminal Flag-His6 tag
T1 sequence (looked up): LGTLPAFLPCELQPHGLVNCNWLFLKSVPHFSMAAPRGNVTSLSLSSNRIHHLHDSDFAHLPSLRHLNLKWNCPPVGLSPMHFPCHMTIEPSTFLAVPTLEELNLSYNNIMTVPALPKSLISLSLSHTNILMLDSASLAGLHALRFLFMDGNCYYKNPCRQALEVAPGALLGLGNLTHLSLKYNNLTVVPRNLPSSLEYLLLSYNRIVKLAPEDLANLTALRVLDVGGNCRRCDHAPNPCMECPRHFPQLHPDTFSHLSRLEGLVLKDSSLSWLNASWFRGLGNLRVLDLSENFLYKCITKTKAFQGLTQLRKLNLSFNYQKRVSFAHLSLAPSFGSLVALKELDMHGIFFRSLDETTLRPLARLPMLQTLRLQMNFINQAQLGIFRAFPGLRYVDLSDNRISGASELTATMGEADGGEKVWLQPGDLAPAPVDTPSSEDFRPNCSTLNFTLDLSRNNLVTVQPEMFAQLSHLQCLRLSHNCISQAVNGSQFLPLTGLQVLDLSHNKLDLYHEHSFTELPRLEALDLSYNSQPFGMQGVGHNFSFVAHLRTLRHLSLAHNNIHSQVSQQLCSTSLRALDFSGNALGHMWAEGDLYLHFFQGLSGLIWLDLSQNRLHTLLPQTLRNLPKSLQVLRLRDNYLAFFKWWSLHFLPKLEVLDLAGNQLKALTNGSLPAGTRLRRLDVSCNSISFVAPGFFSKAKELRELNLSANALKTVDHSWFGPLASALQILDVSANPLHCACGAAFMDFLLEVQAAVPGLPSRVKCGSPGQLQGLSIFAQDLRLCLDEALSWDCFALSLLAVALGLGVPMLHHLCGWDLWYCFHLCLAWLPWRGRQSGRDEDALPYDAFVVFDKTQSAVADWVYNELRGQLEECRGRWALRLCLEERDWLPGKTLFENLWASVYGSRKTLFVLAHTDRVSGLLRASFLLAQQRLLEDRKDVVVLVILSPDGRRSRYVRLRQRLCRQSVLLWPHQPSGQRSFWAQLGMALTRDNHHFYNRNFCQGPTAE

T2: mouse TLR9 having Flag-His6 added on the C-terminal side (mouse, UniProt Q9EQU3 26-1032)
T2 construct: Expressed in Ba/F3 cells and stained after membrane permeabilisation; not shown: C-terminal Flag-His6 tag
T2 sequence: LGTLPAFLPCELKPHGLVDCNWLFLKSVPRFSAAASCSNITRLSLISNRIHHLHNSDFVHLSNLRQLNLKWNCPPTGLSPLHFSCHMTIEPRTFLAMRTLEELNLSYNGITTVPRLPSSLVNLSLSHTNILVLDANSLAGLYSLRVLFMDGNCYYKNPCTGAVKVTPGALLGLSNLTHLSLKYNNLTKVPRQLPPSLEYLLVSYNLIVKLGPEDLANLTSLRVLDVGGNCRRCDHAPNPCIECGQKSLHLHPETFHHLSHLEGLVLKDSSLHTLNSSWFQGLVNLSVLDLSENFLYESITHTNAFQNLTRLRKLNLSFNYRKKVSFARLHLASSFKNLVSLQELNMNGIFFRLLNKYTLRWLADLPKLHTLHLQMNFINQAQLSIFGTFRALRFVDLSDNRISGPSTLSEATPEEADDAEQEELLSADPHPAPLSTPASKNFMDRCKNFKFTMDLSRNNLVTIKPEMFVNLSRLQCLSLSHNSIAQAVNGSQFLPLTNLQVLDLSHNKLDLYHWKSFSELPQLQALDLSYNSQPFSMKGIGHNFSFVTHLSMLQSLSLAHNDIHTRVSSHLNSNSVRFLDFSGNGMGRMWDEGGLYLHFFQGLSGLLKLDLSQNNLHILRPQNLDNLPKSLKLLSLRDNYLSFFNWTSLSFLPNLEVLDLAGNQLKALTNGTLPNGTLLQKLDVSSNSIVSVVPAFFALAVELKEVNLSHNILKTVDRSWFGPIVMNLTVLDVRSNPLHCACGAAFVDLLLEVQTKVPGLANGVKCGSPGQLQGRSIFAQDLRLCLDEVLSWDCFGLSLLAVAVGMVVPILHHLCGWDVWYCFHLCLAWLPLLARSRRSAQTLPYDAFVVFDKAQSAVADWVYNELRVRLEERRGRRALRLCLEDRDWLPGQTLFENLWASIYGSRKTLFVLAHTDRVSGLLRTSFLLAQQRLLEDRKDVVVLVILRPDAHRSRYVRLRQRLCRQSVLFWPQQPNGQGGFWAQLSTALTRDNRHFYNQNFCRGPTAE

T3: mouse TLR9 (mouse, UniProt Q9EQU3 26-1032)
T3 construct: Stands for three settings: mouse TLR9 expressed in Ba/F3 cells (Ba/F3_mTLR9), alone or with Unc93B1, and endogenous TLR9 of spleen DC; also called mTLR9; endogenous TLR9
T3 sequence: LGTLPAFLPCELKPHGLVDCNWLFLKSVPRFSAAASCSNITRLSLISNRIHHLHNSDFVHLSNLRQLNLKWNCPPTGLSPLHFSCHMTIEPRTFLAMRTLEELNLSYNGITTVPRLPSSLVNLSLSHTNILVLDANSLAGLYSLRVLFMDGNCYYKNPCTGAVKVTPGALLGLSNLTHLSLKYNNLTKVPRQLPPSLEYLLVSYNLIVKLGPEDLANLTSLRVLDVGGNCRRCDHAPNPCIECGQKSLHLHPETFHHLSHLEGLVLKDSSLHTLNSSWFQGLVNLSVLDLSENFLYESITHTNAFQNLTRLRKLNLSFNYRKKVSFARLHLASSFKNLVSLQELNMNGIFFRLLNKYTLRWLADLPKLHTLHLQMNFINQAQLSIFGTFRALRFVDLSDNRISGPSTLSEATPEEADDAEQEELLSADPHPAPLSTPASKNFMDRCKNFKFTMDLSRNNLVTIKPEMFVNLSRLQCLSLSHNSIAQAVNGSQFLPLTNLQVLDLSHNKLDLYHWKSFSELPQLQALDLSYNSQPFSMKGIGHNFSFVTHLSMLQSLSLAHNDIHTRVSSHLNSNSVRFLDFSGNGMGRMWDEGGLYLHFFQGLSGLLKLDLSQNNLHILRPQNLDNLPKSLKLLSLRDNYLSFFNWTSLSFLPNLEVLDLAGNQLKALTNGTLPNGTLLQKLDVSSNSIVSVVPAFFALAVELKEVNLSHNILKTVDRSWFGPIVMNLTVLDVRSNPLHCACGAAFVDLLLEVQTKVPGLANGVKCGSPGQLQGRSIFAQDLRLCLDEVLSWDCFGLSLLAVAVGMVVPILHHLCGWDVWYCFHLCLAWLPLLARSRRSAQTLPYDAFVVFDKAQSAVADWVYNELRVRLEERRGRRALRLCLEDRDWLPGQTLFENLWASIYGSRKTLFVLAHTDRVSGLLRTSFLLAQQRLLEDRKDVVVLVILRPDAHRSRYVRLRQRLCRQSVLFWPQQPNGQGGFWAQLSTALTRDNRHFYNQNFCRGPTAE

T4: C terminal region TLR7 (TLR7C; from 461-st glutamic acid to 837-th aspartic acid) (mouse, UniProt P58681 461-837)
T4 construct: not shown: N-terminal HA antigen added by the pDisplay vector; Cell-surface display (membrane anchor) part of the pDisplay vector; not described
T4 sequence: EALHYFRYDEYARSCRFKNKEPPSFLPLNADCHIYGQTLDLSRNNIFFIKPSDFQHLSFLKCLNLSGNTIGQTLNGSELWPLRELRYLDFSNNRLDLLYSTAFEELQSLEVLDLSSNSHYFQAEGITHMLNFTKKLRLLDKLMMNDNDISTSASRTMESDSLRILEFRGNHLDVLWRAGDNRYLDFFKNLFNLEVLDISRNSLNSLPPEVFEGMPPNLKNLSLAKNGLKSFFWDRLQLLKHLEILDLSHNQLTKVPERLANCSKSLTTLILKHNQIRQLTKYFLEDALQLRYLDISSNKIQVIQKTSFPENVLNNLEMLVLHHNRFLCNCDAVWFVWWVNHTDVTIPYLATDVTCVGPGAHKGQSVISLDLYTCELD

T5: TLR7N27-312 (mouse, UniProt P58681 27-312)
T5 construct: Expressed in a cell line; also called fragment of TLR7 from position 27 to position 312
T5 sequence: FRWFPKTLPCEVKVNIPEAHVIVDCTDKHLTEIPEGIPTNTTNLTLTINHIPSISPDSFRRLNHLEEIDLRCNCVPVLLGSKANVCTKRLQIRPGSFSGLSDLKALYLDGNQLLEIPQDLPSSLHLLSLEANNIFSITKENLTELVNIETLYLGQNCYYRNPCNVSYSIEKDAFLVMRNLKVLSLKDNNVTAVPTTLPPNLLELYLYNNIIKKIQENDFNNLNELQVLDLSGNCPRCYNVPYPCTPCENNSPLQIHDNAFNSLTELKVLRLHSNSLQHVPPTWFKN


Assays:
[1] = molecular target: T1, human TLR9 having Flag-His6 added on …; test: membrane permeability staining of Ba/F3 cells, flow cytometry
[2] = molecular target: T2, mouse TLR9 having Flag-His6 added on …; test: as above
mouse TLR9 = molecular target: T3, mouse TLR9; test: flow cytometry on Ba/F3_mTLR9 cells, hybridoma selection
Excerpt: In order to establish a monoclonal antibody (mAb) against mouse TLR9, BALB/c TLR9^{-/-} mice were immunized with Ba/F3 cells(Ba/F3_mTLR9) that expressed mouse TLR9. Four days after final immunization, the spleen cells were fused with the SP2/0 myeloma cells. Hybridomas producing anti-mouse TLR9 mAb were selected by flow cytometry based on the staining of the Ba/F3 cells used for immunization. Three monoclonal antibodies J15A7 (IgG1/κ), C34A1 (IgG2a/κ), and B33A4 (IgG2a/κ) were established.

[3] = molecular target: T4, C terminal region TLR7 (TLR7C; from …); test: flow cytometry on cells displaying the fragment
TLR7N27-312 = molecular target: T5, TLR7N27-312; test: flow cytometry on a cell line expressing the fragment

binding result [1]	binding result [2]	binding result (mouse TLR9)	binding result [3]	binding result (TLR7N27-312)	Binder
no binding					B33A4 antibody (antibody, V domains shown, Mouse monoclonal antibody from a hybridoma, IgG2a/kappa; also called anti-TLR9N) VH: EVLLQQSGPELVKPGASVKIPCKASGFTFTDYNLDWVKQSHEKSLEWIGDINPNTGGTIYNQNFKGKATLTVDRSSGTAYMELRSLTSEDTAVYFCARYFVSNYGYFDVWGAGTTVTVSS VL: SIVMTQTPKFLLVSAGDRVTITCKASQSVSYDVAWYQQKPGQSPKLLIYYASNLYTGVPDRFTGSGYGTDFTFTISTVQAEDLAVYFCQQDSSSPYTFGGGTKLEIKR
no binding	binds	binds			J15A7 antibody (antibody, mouse IgG1, kappa, V domains shown, Mouse monoclonal antibody from a hybridoma, IgG1/kappa; also called anti-TLR9 monoclonal antibody J15A7) VH: QVQLQQPGAELVMPGASVKMSCKASGYTFTDYWMHWVKQRPGQGLEWIGVIDTSDSYTSYNQKFNRKATLTVDESSSTAYMQLSSLTSEDSAVYYCARDGPYYAMDYWGQGTSVTVSS VL: QIVLTQSPAIMSASPGEKVTISCSASSGVSYMYWYQQKPGSSPKPWIYRTSNLASGVPARFSGSGSGTSYSLTISSMEAEDAATYYCHQYHSDPRTFGGGTKLEIKR
no binding	binds	binds			C34A1 antibody (antibody, mouse IgG2a, kappa, V domains shown, Mouse monoclonal antibody from a hybridoma, IgG2a/kappa) VH: EVQLVESGGDLVKPGGSLKLSCAASGFTFSSYAMSWVRQTPDNRLEWVATSSSVGSYAYYPDNVKGRFTISRDNAKNTLYLQMSSLKSEDTAMYYCARRDYDARYWYFDVWGAGTTVTVSS VL: DIKMTQSPSSMYASLGERVTITCKASQDIKSYLSWYQLKPWKSPKTLIYYATTLADGVPSRFSGSGSGQDYSLTISSLESDDTATYYCLQHGESPYTFGGGTKLEIKR
			no binding	no binding	A94B10 antibody (antibody, V domains shown, Mouse monoclonal antibody from a hybridoma, isotype IgG1; Chains were determined from full-length cDNA (5'-RACE); also called anti-mouse TLR7 antibody A94B10; anti-TLR7 monoclonal antibody) VH: EVKLVESGGGLVQPGGSLRLSCTTSGFTFSDFYMEWVRQPPGKRLEWIAASRNKRNDHTTEYSASVKGRFIVSRDTSQNILYLQMNALRAEDTAIYYCARDADYYGSSTWYFDVWGAGTTVTVSS VL: DIVMTQSHKFMSTSVGDRVSITCKASQDVRTAVAWYQQKPGQSPKLLIYWASTRHTGVPDRFTGSGSGTDYTLTISSVQAEDLALYYCQQHYNTPPTFGGGTKLEIKR
